From patent US20160215026A1

Key:
[1] = target: human immunoglobulin G drug separated from human plasma (human); assay: SPR, Biacore 3000, human IgG immobilized on CM5, peptide as analyte, 25 C, pH 7.4, 1:1 model
[2] = target: human immunoglobulin G drug separated from human plasma (human); assay: SPR, Biacore 3000, human IgG immobilized; reference C-G29A/S33E.1d

| Ka [1] | koff [1] | kon [1] | affinity constant KA relative to C-G29A/S33E.1d [2] | Substance |
| --- | --- | --- | --- | --- |
| 3.9e+07 M⁻¹ | 0.00709 s⁻¹ | 276000 M⁻¹ s⁻¹ | – | C-G29A/S33E/K7E/A46E.1d (designed binder) |
| 5.7e+06 M⁻¹ | 0.00519 s⁻¹ | 29000 M⁻¹ s⁻¹ | 0.1 fold | C-G29A/S33E/K7E/H18D/V40D/A46D/Q55E.1d (designed binder) |
